Publication PMC6692582

Columns and labels:
[1] = target: N-terminal NanoLuc-tagged VEGFR2 (wild type) (UniProt P35968); assay: FRET or BRET; NanoBRET saturation binding, membranes from NanoLuc-VEGFR2 HEK293T cells (5 μg per well); increasing fluorescent ligand with or without 100 nM corresponding unlabelled ligand; 60 min, 37°C; HeBSS/0.1% BSA pH 7.4
[2] = target: N-terminal NanoLuc-tagged VEGFR2 (wild type) (UniProt P35968); assay: FRET or BRET; NanoBRET kinetics, membranes from NanoLuc-VEGFR2 HEK293T cells (10 μg per well); five concentrations of fluorescent ligand (1–20 nM); every 30 s for 90 min at 37°C; KD kinetic (koff/kon)
[3] = target: tyrosine phosphorylation-deficient NanoLuc-VEGFR2 (UniProt P35968); assay: FRET or BRET; NanoBRET time course, intact HEK293T cells transiently transfected with wild-type or tyrosine phosphorylation-deficient NanoLuc-VEGFR2; 3 or 20 nM VEGF121a-TMR; every 30 s at 37°C
[4] = target: N-terminal NanoLuc-tagged VEGFR2 (wild type) (UniProt P35968); assay: as above
[5] = target: tyrosine phosphorylation-deficient NanoLuc-VEGFR2 (UniProt P35968); assay: FRET or BRET; NanoBRET kinetics, membranes from a stable cell line expressing tyrosine phosphorylation-deficient NanoLuc-VEGFR2; four concentrations of VEGF121a-TMR (3–20 nM), 90 min at 37°C; KD kinetic (koff/kon)
[6] = target: N-terminal NanoLuc-tagged VEGFR2 (wild type) (UniProt P35968); assay: FRET or BRET; NanoBRET kinetics, wild-type NanoLuc-VEGFR2 membranes (10 μg per well), HeBSS/0.1% BSA pH 6.0 (5.8–6.2); four concentrations of VEGF165b-TMR (3–20 nM), 37°C; KD kinetic (koff/kon)
[7] = target: N-terminal NanoLuc-tagged VEGFR2 (wild type) (UniProt P35968); assay: FRET or BRET; NanoBRET kinetics, intact HEK293T cells stably expressing NanoLuc-VEGFR2, pretreated with 0.01% DMSO (30 min, 37°C); four concentrations of VEGF165b-TMR (3–20 nM), every 30 s for 90 min at 37°C; constants from a global association fit to the initial 20 min; KD kinetic (koff/kon)
[8] = target: N-terminal NanoLuc-tagged VEGFR2 (wild type) (UniProt P35968); assay: FRET or BRET; NanoBRET kinetics, wild-type NanoLuc-VEGFR2 membranes (10 μg per well), HeBSS/0.1% BSA pH 7.4 (matched with pH 6.0); four concentrations of VEGF165b-TMR (3–20 nM), 37°C; KD kinetic (koff/kon)
[9] = target: N-terminal NanoLuc-tagged VEGFR2 (wild type) (UniProt P35968); assay: FRET or BRET; NanoBRET saturation binding, wild-type NanoLuc-VEGFR2 membranes (5 μg per well), HeBSS/0.1% BSA pH 6.0 (5.8–6.2); with or without 100 nM VEGF165b; 60 min, 37°C
[10] = target: N-terminal NanoLuc-tagged VEGFR2 (wild type) (UniProt P35968); assay: FRET or BRET; NanoBRET kinetics, NanoLuc-VEGFR2 membranes preincubated with 1 μM cediranib (30 min, 37°C); four concentrations of VEGF165b-TMR (3–20 nM), 90 min at 37°C; KD kinetic (koff/kon)
[11] = target: N-terminal NanoLuc-tagged VEGFR2 (wild type) (UniProt P35968); assay: FRET or BRET; NanoBRET kinetics, NanoLuc-VEGFR2 membranes preincubated with 0.01% DMSO (30 min, 37°C); four concentrations of VEGF165b-TMR (3–20 nM), 90 min at 37°C; KD kinetic (koff/kon)
[12] = target: N-terminal NanoLuc-tagged VEGFR2 (wild type) (UniProt P35968); assay: FRET or BRET; NanoBRET saturation binding, wild-type NanoLuc-VEGFR2 membranes (5 μg per well), HeBSS/0.1% BSA pH 7.4 (matched with pH 6.0); with or without 100 nM VEGF165b; 60 min, 37°C
[13] = target: N-terminal NanoLuc-tagged VEGFR2 (wild type) (UniProt P35968); assay: FRET or BRET; NanoBRET kinetics, intact HEK293T cells stably expressing NanoLuc-VEGFR2, pretreated with 1 μM cediranib (30 min, 37°C); four concentrations of VEGF165b-TMR (3–20 nM), every 30 s for 90 min at 37°C; constants from a global association fit to the initial 20 min; KD kinetic (koff/kon)
[14] = target: NanoLuc-VEGFR2 (Homo sapiens) (UniProt P35968); assay: NanoBRET kinetics, intact cells; details: cited from earlier work
[15] = target: N-terminal NanoLuc-tagged VEGFR2 (wild type) (UniProt P35968); assay: FRET or BRET; NanoBRET displacement, membranes from NanoLuc-VEGFR2 HEK293T cells (5 μg per well); five fixed concentrations of fluorescent ligand with increasing VEGF-Ax (0.03–30 nM); 60 min, 37°C; Ki by Cheng–Prusoff
[16] = target: N-terminal NanoLuc-tagged VEGFR2 (wild type) (UniProt P35968); assay: FRET or BRET; NanoBRET kinetics, membranes from NanoLuc-VEGFR2 HEK293T cells (10 μg per well); five concentrations of fluorescent ligand (1–20 nM); every 30 s for 90 min at 37°C; KD kinetic (koff/kon); remark: listed apart in the source

Sequence of VEGF-Ax (P15692 whole entry): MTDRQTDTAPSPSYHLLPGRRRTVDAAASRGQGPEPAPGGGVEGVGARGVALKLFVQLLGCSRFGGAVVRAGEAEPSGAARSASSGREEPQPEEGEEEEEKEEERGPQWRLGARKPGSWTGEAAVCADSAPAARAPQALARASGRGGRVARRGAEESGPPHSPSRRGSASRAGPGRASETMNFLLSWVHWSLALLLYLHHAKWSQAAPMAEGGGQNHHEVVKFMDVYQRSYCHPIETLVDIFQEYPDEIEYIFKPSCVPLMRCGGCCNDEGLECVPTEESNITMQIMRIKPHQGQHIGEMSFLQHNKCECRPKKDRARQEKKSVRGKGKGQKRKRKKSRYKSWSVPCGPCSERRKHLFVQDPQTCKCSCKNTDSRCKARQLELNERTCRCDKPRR
Sequence of VEGF165a-TMR (P15692 whole entry): as above

VEGF121a-TMR (from UniProt P15692-9 1-147) (ligand)
Kd [1]: 2.58 nM
Kd [2]: 3.85 nM
koff [2]: 0.000317 s⁻¹
kon [2]: 85500 M⁻¹ s⁻¹
residence time [2]: 52.6 min
AUC of the NanoBRET time course at 3 nM [3]: 3.54
AUC of the NanoBRET time course at 20 nM [3]: 9.79
AUC of the NanoBRET time course at 3 nM [4]: 2.61
AUC of the NanoBRET time course at 20 nM [4]: 7.28
Kd [5]: 6.85 nM
koff [5]: 0.000617 s⁻¹
kon [5]: 104000 M⁻¹ s⁻¹
residence time [5]: 27 min

VEGF165b-TMR (from UniProt P15692-8 1-191) (ligand)
Kd [6]: 13.3 nM
koff [6]: 0.000983 s⁻¹
kon [6]: 73200 M⁻¹ s⁻¹
residence time [6]: 17 min
Kd [1]: 5.55 nM
AUC of the NanoBRET time course at 5 nM [7]: 0.71
AUC of the NanoBRET time course at 20 nM [7]: 1.8
Kd [7]: 19.8 nM
koff [7]: 0.00135 s⁻¹
kon [7]: 71000 M⁻¹ s⁻¹
residence time [7]: 12.3 min
Kd [2]: 9.21 nM
koff [2]: 0.000483 s⁻¹
kon [2]: 61500 M⁻¹ s⁻¹
residence time [2]: 34.5 min
Kd [8]: 10.2 nM
koff [8]: 0.000383 s⁻¹
kon [8]: 39000 M⁻¹ s⁻¹
residence time [8]: 43.5 min
Kd [9]: 4.43 nM
Kd [10]: 8 nM
koff [10]: 0.00035 s⁻¹
kon [10]: 45700 M⁻¹ s⁻¹
residence time [10]: 47.6 min
Kd [11]: 9.68 nM
koff [11]: 0.000383 s⁻¹
kon [11]: 44800 M⁻¹ s⁻¹
residence time [11]: 43.5 min
Kd [12]: 5.29 nM
AUC of the NanoBRET time course at 5 nM [13]: 0.77
AUC of the NanoBRET time course at 20 nM [13]: 2.04
Kd [13]: 43.6 nM
koff [13]: 0.00152 s⁻¹
kon [13]: 43800 M⁻¹ s⁻¹
residence time [13]: 11 min

VEGF165a-TMR (from UniProt P15692)
Kd [14]: 6.64 nM

VEGF-Ax (ligand)
pKi (fluorescent probe VEGF121a-TMR) [15]: 10.3
pKi (fluorescent probe VEGF165a-TMR) [15]: 10.2
pKi (fluorescent probe VEGF165b-TMR) [15]: 9.96

VEGF165a-TMR (from UniProt P15692-4 1-191) (ligand)
Kd [1]: 0.31 nM
Kd [2]: 2.21 nM
Kd [16]: 2.4 nM
